Target: T1, TTHA0973 (PaaR, TetR family) (Thermus thermophilus HB8) (UniProt Q5SJN5)
T1 sequence: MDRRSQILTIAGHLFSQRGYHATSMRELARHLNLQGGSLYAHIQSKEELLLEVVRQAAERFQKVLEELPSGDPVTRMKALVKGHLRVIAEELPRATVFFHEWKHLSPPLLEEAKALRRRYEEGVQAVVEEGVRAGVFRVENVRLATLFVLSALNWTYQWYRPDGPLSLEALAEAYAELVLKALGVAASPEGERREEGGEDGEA
Assay: BLI
Settings: BLI with 11, 33, 100, 300 nM TTHA0973; EMSA 0-100 nM; buffer, salt, pH, temperature not given (cited protocol)

CTAGGAATTCGTGCAGAGGTGAATACCTAGCGTTACTTTTACCATCCCTCCAGAAGCTTGGACA (double strand) [ST2_0973_0647bp]
Kd: 99.5 nM
